Assay results taken from publication PMC3226435, “Slice orientation and muscarinic acetylcholine receptor activation determine the involvement of N-methyl D-aspartate receptor subunit GluN2B in hippocampal area CA1 long-term depression” (Molecular Brain, 2011).

Molecular target: T1, N-methyl D-aspartate receptor subunit GluN2B (rat (endogenous in hippocampal slices), UniProt Q00960 27-1482)
T1 construct: NMDA receptor subunit GluN2B, endogenous in hippocampal slices of male Sprague-Dawley rats aged 14-21 days; Immunoprecipitated from the lysate with a rabbit polyclonal antibody against the GluN2B C-terminus; other NMDA receptor subunits may be present in the precipitate but were not examined; source: endogenous, lysate of rat hippocampal slices (RIPA buffer)
Test: co-IP; GluN2B immunoprecipitated with rabbit polyclonal anti-GluN2B C-terminal antibody on protein A beads from 500 ug RIPA lysate of rat hippocampal slices (sagittal control or 20 uM scopolamine for 2 hrs; untreated coronal or sagittal), overnight at 4°C, four washes in RIPA; Western blot for RasGRF1, RasGRF1 normalized to GluN2B
Conditions: partners not purified

T1 sequence (Q00960 27-1482): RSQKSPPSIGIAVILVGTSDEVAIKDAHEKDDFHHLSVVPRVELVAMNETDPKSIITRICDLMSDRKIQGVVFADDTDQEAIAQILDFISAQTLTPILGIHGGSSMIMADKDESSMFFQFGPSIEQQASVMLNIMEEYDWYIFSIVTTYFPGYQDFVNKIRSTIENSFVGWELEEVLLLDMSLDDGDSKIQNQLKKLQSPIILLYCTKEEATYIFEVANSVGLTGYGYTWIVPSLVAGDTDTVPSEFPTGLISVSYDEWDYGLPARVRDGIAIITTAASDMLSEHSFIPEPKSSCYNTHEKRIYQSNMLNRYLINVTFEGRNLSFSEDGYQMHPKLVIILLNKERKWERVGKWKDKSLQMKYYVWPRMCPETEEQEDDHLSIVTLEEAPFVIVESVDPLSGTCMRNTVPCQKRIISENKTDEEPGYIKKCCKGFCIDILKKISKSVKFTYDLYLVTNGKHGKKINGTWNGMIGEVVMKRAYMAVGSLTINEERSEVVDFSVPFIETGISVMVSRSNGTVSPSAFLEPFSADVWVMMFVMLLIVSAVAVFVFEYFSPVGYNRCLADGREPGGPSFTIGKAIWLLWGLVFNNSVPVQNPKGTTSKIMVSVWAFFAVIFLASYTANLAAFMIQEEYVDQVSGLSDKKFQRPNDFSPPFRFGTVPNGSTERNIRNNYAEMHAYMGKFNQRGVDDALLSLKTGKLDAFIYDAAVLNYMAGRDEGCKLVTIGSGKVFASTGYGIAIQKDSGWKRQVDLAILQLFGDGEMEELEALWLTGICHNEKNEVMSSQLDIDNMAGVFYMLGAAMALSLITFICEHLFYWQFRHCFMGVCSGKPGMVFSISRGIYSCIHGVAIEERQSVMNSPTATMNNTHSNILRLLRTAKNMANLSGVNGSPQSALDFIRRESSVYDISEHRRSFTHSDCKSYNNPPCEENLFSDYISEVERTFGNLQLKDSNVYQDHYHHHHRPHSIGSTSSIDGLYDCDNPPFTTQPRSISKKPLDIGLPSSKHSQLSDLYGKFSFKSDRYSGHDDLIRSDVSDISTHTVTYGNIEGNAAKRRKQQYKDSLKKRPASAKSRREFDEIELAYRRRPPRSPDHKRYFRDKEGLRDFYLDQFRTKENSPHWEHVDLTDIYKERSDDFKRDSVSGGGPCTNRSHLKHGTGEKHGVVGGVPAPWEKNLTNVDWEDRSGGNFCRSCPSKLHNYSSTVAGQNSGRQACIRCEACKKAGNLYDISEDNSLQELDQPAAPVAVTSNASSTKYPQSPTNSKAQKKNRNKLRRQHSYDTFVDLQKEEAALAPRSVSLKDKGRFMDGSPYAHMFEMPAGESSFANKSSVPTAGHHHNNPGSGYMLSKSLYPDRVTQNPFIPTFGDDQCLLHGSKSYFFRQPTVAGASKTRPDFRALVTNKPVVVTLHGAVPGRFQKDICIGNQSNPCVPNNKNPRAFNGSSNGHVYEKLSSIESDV

ratio of normalized RasGRF1 in GluN2B immunoprecipitate, coronal/sagittal: 1.33 ± 0.105
ratio of normalized RasGRF1 in GluN2B immunoprecipitate, scopolamine/control: 2.04 ± 0.451
B1: Ras Guanine nucleotide Release Factor 1 (natural protein, rat (endogenous in hippocampal slices), UniProt P28818 1-1244, looked up)
chain: MQKAIRLNDGHVVSLGLLAQRDGTRKGYLSKRSSDNPKWQTKWFALLQNLLFYFESDSSSRPSGLYLLEGSICKRMPSPKRGTSSKESDKQHHYFTVNFSNDSQKSLELRTDDSKDCDEWVAAIARASYKILATEHEALMQKYLHLLQVVETEKTVAKQLRQQLEDGEVEIERLKAEIANLIKDNERIQSNQLVAPEDEDSDIKKIKKVQSFLRGWLCRRKWKNIIQDYIRSPHADSMRKRNQVVFSMLEAEAEYVQQLHILVNNFLRPLRMAASSKKPPITHDDVSSIFLNSETIMFLHQIFYQGLKARIASWPTLVLADLFDILLPMLNIYQEFVRNHQYSLQILAHCKQNRDFDKLLKQYEAKPDCEERTLETFLTYPMFQIPRYILTLHELLAHTPHEHVERNSLDYAKSKLEELSRVMHDEVSETENIRKNLAIERMITEGCEILLDTSQTFVRQGSLIQVPMSEKGKINKGRLGSLSLKKEGERQCFLFSKHLIICTRGSGSKLHLTKNGVISLIDCTLLDDPENMDDDGKGQEVDHLDFKIWVEPKDSPPFTVILVASSRQEKAAWTSDIIQCVDNIRCNGLMMNAFEENSKVTVPQMIKSDASLYCDDVDIRFSKTMNSCKVLQIRYASVERLLERLTDLRFLSIDFLNTFLHSYRVFTDAVVVLDKLISIYKKPITAIPARSLELLFSSSHNTKLLYGDAPKSPRASRKFSSPPPLAIGTSSPVRRRKLSLNIPIITGGKALELASLGCPSDGYTNIHSPISPFGKTTLDTSKLCVASSLTRTPEEIDMTTLEESSGFRKPTSDILKEESDDDQSDVDDTEVSPPTPKSFRNRITQEFPLFNYNSGIMMTCRDLMDSNRSPLSATSAFAIATAGANESPANKEIYRRMSLANTGYSSDQRNIDKEFVIRRAATNRVLNVLRHWVTKHSQDFETDDLLKYKVICFLEEVMHDPDLLPQERKAAANIMRTLTQEEITENHSMLDELLLMTEGVKTEPFENHSAMEIAEQLTLLDHLVFKSIPYEEFFGQGWMKADKNERTPYIMKTTRHFNHISNLIASEILRNEEVSARASTIEKWVAVADICRCLHNYNAVLEITSSINRSAIFRLKKTWLKVSKQTKSLFDKLQKLVSSDGRFKNLRETLRNCDPPCVPYLGMYLTDLAFLEEGTPNYTEDGLVNFSKMRMISHIIREIRQFQQTTYKIEPQPKVTQYLVDETFVLDDESLYEASLRIEPKLPT
notes: RasGRF1, Ras-specific guanine nucleotide exchange factor, endogenous in hippocampal slices of male Sprague-Dawley rats aged 14-21 days; Detected in the GluN2B immunoprecipitate by Western blot with a rabbit polyclonal anti-RasGRF1 antibody; also called RasGRF1; source: endogenous, lysate of rat hippocampal slices (RIPA buffer)
